Measured values published in the DeepSol protein solubility set.

assay: soluble on expression in E. coli; label from the status in PepcDB or PDB records

Sequence	soluble on expression in E. coli
MAVKKIAIFGATGQTGLTTLAQAVQAGYEVTVLVRDSSRLPSEGPRPAHVVVGDVLQAADVDKTVAGQDAVIVLLGTRNDLSPTTVMSEGARNIVAAMKAHGVDKVVACTSAFLLWDPTKVPPRLQAVTDDHIRMHKVLRESGLKYVAVMPPHIGDQPLTGAYTVTLDGRGPSRVISKHDLGHFMLRCLTTDEYDGHSTYPSHQYQ	soluble
MAVMKVLIVEDETAAYENLTDILTEITPDIRIMANTESVTQTVGWLQSNPAPDLIFMDIHLSDGSAFAIFDRIELETPIIFTTAYDRYAIEAFKVNSIDYLLKPVKVEDVEHALEKYSKLTRQDLLQYLSQLTLLKPAPRYKDKLLIAHKDKLLPVNIKNISYFYATGKNTYVCLKDGNRYPYSKTLEQIASSLNPEDFIRANKQFIVARDSVTDITIWFDNRLLITLDTEVPERIYVSKNKASEFKTWLVNDK	not soluble
MAVNLYDYANQLEQALRESEEYKAIKEAFANVKANEESKKLFDEFRETQINFQQKQMQGEEIAEEDLQKAQEQAQAIEKDENISALMNAEQKMSQVFQEINQIIVKPLDEIYAD	not soluble
MAVQLLENWLLKEQEKIQTKYRHLNHISVVEPNILFIGDSIVEYYPLQELFGTSKTIVNRGIRGYQTGLLLENLDAHLYGGAVDKIFLLIGTNDIGKDVPVNEALNNLEAIIQSVARDYPLTEIKLLSILPVNEREEYQQAVYIRSNEKIQNWNQAYQELASAYMQVEFVPVFDCLTDQAGQLKKEYTTDGLHLSIAGYQALSKSLKDYLY	soluble
MAVQRYFVSGQAQQGGIVAISGDDAHHIARVMRMKPGDGIICVFPDGRTAVCEIEQIANEHVQARIVQWKEERSELPVRIYIAQGLPKGEKWELVIQKGTELGAAGFLPFEAARSVVKWDAKKAEKKVERWKKIAKEAAEQAERTVVPDVRAPLSFVELLAFGQTVDVRLFAYEKEARNARHAALPALLSRLRPGGALLAVFGPEGGFSPEEAEQLRQHGFSPCSLGPRILRTETAPLYLLSAASYEWELRAGGEAARGR	not soluble
MAVRIRLAKFGRKHHPIYRIVVMDAKSPREGKYIDILGTYDPKRKVLINVYPEKVKEWVLKGVELSHRAKAILWNHGILKEVVPEGYEMKRVGDYYVFEKRESKKSKGGEAA	soluble
MAVSLSKGGNVSLSKEAPGLTGIVVGLGWDPRATDGQAFDLDGSVFLLDAGGKVRGDSDFIFYNNKTSSDGSVEHTGDNTTGAGEGDDETVKIDLSKVPADVDKIAVCVTIHEAETRNQNFGQVSKAYIRVMNQTGGAEIARYDLSEDASTDTAMIFGEVYRHGSDWKFKAVGQGYAGGLAPLARNYGVNV	soluble
MAVSTVTGAAGIGLATLAADGSVLDTWFPAPELTESGTSATSRLAVSDVPVELAALIGRDDDRRTETIAVRTVIGSLDDVAADPYDAYLRLHLLSHRLVAPHGLNAGGLFGVLTNVVWTNHGPCAIDGFEAVRARLRRRGPVTVYGVDKFPRMVDYVVPTGVRIADADRVRLGAHLAPGTTVMHEGFVNYNAGTLGASMVEGRISAGVVVGDGSDVGGGASIMGTLSGGGTHVISIGKRCLLGANSGLGISLGDDCVVEAGLYVTAGTRVTMPDSNSVKARELSGSSNLLFRRNSVSGAVEVLARDGQGIALNEDLHANGVPRGLEHHHHHH	soluble
MAVTAQAARRKERVLCLFDVDGTLTPARQKIDPEVAAFLQKLRSRVQIGVVGGSDYCKIAEQLGDGDEVIEKFDYVFAENGTVQYKHGRLLSKQTIQNHLGEELLQDLINFCLSYMALLRLPKKRGTFIEFRNGMLNISPIGRSCTLEERIEFSELDKKEKIREKFVEALKTEFAGKGLRFSRGGMISFDVFPEGWDKRYCLDSLDQDSFDTIHFFGNETSPGGNDFEIFADPRTVGHSVVSPQDTVQRCREIFFPETAHEA	soluble
MAYDIERYLDIRGAGDPTYGPTGELAFTLGTTGTAQVWALGAPGAWPTQLTFHDERVQWASFSPTREELAYGMDTGGDEFTQLHRVSGDGSEDVQLTAFPDAKHDWGGWSHDGDRIAYTANRRDASRFDVYVQGRDEAGANADCVRVGDTFDLPSVVGWSPSDDRLLVVDTHSNFDQDVAVLDVDTGEITRATAGLDADTRFSWVAWAPDGGGVYVTTDHDADTRYLGLLDPETGAISRVADGGDWPIEAVVTAHDAGRLAYVRNRDGYSELTIADAAGTTLTEQPTPELPDGVIRGLSWGPDGDTLAVVVSAATENPNVFVVDVATGAATQWTNAATAGIPKSTFREPELVRYETFDGREIPALFTRPDGDGPHPVIVDFHGGPEGQRRPSFLSLRQYFVDNGYAVFEPNVRGSSGYGATYMNLDNVRNRMDAVADGKAGVEWLTARTDIDADRVVAYGGSYGGFMVLASLTEYPELWAAGVDIVGIANFVTFLENTGDWRREHRESEYGSLDADREFLESISPTNNADRIRAPLLVLHGANDPRVPVGEAERIVEQASAHVPVEKHVFDDEGHGFSKRANKQAAYRAVVDFLDDHALEHHHHHH	not soluble
MAYDIFLKIDGIDGESMDDKHKNEIEVLSWRWNIHQESTMHAGSGLGSGKVSVTNLDFDHYIDRASPNLFKYCASGKHIPQAILVMRKAGGNPLEYLKYTFTDLIVAVVSPSGSHDGEIASRETVELSFSTVKQEYVVQNQQGGSGGTITAGYDFKANKEI	not soluble
MAYPGHPGAGGGYYPGGYGGAPGGPAFPGQTQDPLYGYFAAVAGQDGQIDADELQRCLTQSGIAGGYKPFNLETCRLMVSMLDRDMSGTMGFNEFKELWAVLNGWRQHFISLDTDRSGTVDPQELQKALTTMGFRLSPQAVNSIAKRYSTNGKITFDDYIACCVKLRALTDSFRRRDTAQQGVVNFPYDDFIQCVMSV	soluble
MCDCLSIILLVKMKKIYLKFVDFWDGFDTISNFIVDALSIQYEVVLSNEPDYLFYSCFGTSHLEYDCIKIMFIGENIVPDFNVCDYAIGFNYIDFGDRYLRLPLYAIYDGFSNLQNKKIDVNKALDRKFCSIVVSNNKWADPIRETFFKLLSSYKKVDSGGRAWNNIGGPVDNKLDFISQYKFNIAFENSRVLGYTTEKIMEPMQVNSIPVYWGNPLVGKDFNVDSFVNAHDFDSLERLVEYIIELDSSKDKYLEMLEKPWLLDKTYLDWKQLLLNFINNIMMKSYKDAKYLVNYGHAGKYRNEQRFWGRCERKFKLQRIIEYYSQLFDRKLEHHHHHH	not soluble
MCDIGNLTQYRQAQEDILRGRVKVRVVGQDKGGGVVMGEGVEIAPGARIEGPVLIGGACHIATGAVVGPFTVLGPYTRVEEGATVRRSVLWDNVYTGEGANVRGLEHHHHHH	not soluble
MCECYQFYRMRITQSAQICLSVIKKSQKTGFGPNRLQRKGTHFVGTEPPVLKYHILQDKKPNEEYGLQGTNHELPGTGKVHSKLPTKVHMKKDKVYAWCSCGYSGSQPLCDGSHNSIRIPDLKLKPVRFIPDKDMTVWLCNCKQTNNRPFCDGSHKTVTDEDKKAGLFD	not soluble
MCGIIGFMSRTGRLISGDRIATALNCLKERGNGEGSGYVGYGIYPDYKDDYAIHVFLDATKDYDRIRHEVEEVLVKYGYILKDEEIPTEEGIIKQEQVSWRFFYRFDEKYKTVEEDLMVDIVMDINAKIDGAFVFSSGKNMGVFKAAAWPLEVAEYFKIDQYKGFQWLSHARYPTNTKGWWGGAHPFNLLGWSVVHNGEITSYGANKRYVESFGYKCKLLTDTEVVAYLFDLLIRKHKIPVEYAMSALAPRFWDEIEIMSEEDKKIHEAIRMTYGGATMNGPFGIVVGTQEGMVFMNGEVEEGNTMVGLTDRIKLRPLVAAEKDDLLFVSSEESAIRKICPELDRVWMPDAGRMVIAKLEKKI	not soluble
MCGIVGANSTRNVTNILIEGLKKLEYRGYDSAGLAIIDDKNNIDICKEVGKVIELEKSVHNLANFKGDIGIAHTRWATHGKPSKNNSHPHASESFCIVHNGVIENFAELKKVLINDGYKFKSDTDTEVIAHLLQKEWRDNFSIVDNIKYIMAMLKGAYAVAIISQKFSDKIVAVRSGSPLVIGVGIDENFISSDALSLLPVTNKFSYLDEGDIAIISKDNVEVFDNNGAAKNLEVEEYNYSSSSASKDGYKHYMLKEIYEQPEAVSNTILASLADGEISLDSFDKRAKELFEKTKHICIVACGTSYNAGMTAKYWIEKYAKVPCSVEIASEIRYRDNVVVDGSLFVSISQSGETADTLESLRKSKKQNYVGSMCICNVPNSSLVRESDIAFMTKAGVEIGVASTKAFTTQLVALAIFTLVIAKLKNSLTDQQIAKYTEELKNIRALVMGALKLDTEIDQISEYFSDKEHTIFLGRGLYYPIAIEGALKLKEISYIHAEAYPSGELKHGPLALVDKNMPIVAVVPNDELLDKTLSNLQEVHARGGKLILFVDKAVKERVNFDNSIVLELDAGHDFSAPVVFTIPLQLLSYHVAIIKGTDVDQPRNLAKSVTVE	not soluble
MCGRFVLFTTDESLLGHPALRIFHSIHAPKGMPPARYNIAPTTIIPILRVGTTPTEAVIEPARWGLIPAWKREVTLPPLFNARAETVTTKPSFRQAFSTQRCAIPMDGYYEWHNKKPYWITTGAPTWVAGLWDSGAGMLSATMITTDSVAPLDWLHHRMPRFLNNDELAVWLRGSADEASGLLTPGDASAFHTSLADPSVGNIRNDYPELIDAPTDLFSLLEHHHHHH	soluble
MCGVSLSVIIETLYFACRFRMVEKFLNQSVIWCRSGALRHCRTCGRGRAADTAFTLGDGSKRMGGCVQKEKNEAQKGEKGYRFRLFTGK	not soluble
MCLDVLIHYPQEKADEMISHLCSLAQSRIILSFAPKTCALTLLKKIGSFFPGPSKTTRAYLHREADVIKILESNGFAIQRKEFTKTRFYFSRILEATRSLEHHHHHH	not soluble
MCMEKFYKVGTIVNTQGLQGEVRVMPSTDFAQERFSKGSVLALFDDKDNYIQDLKVKSGRPQKNFYVVKFEGFYHINDVEKYKGYIVKIAEENQEDLDDGEFYYHEIIGSDVYENDILIGQISEILQPGANDVWVVKRKGKRDLLLPYIPPVILNVDVNQHRVDVSIMEGLDDLEHHHHHH	soluble
MCMHNSGFNLNLPPWVIASRHFNDNPHPLEVQGVRLANRFLFERLDAIASPDERGTVFNDYMSVKFQLHLWQEQATPSARKSLKNSYLRYLRGWMMDSNSVEGAVLKGWVESRMGIVPSFHKARITGIHTESYYGYVVDRTAGSKRTSAINSQLDILYEFCQYELARRFPGELWVTLYRGTFAADDYDVVEELGRREKIIRFNNLVSFTSHEERAWEFGSTVWEIRAPLSKVFFFDDLLPGSILKGEGEYLVIGGEYRVRRVMCTVLEHHHHHH	not soluble
MCMVMREYNKERLRKAIELWYREEGVRIIKDRVEHYLKFYPVKPRSIKVKEQKRRWGSCTYYNDLLFNWRCIMAPLKVVDYIVVHEMTHMVHKDHSKNYWNFVSKIIPNYKEQKMWLKENGIIMDIMAGDPLEHHHHHH	soluble
